Test results from patent US20100317830A1, “BACE455, AN ALTERNATIVE SPLICE VARIANT OF THE HUMAN BETA-SECRETASE” (EXONHIT THERAPEUTICS SA, priority 2003, published 2010).
Where a name gives a salt, the structure may show the parent alone. Square brackets hold non-standard residues; d marks the D form. Peptide text beside a SMILES is read from it. * marks the point of attachment. Sta = CC(C)C[C@H](N)[C@@H](O)CC(=O)O; Isovaleryl = CC(C)CC(=O)*

Experiments:
[1] = system: endogenously expressed APP isoforms in SH-SY5Y cells; test: Western blot of C99 fragment generation in transfected SH-SY5Y cells; type: cell-based, human; details: BACE455 SH-SY5Y cells
Experimental: SH-SY5Y cells for transfection were grown to 80% confluence in Dulbecco's modified Eagle's medium (DMEM) with 10% fetal bovine serum. Transfections were performed using LipofectAmine Plus (Gibco-BRL) with […] per 10*10<6>cells. Three days posttransfection, cells were passaged into medium containing G418 at a concentration of 400 μg/ml. After twenty days growth in selective medium, individual clones were selected and plated into each well of one 96 well plate containing growth medium plus G418. Clones were expanded from the 96 well plate to a 24 well plate and then to a 6 well plate. Clones which had lost initial neuronal-like morphology were not amplified. BACE455 or BACE501 expression in selected clones was assayed by Western Blotting and immunohistochemical analysis using Cterminal-specific antibody.
Cells were harvested 3 days after plating. Cells were washed twice with PBS and lysed in 1 ml CellLytic solution (Sigma) plus protease inhibitors cocktail (Roche Diagnostics) for 15 min. […] Following electrotransfer of the separated polypeptides to PVDF membranes, APP and C99 proteolytic fragment were detected with C-terminal-specific rabbit anti-APP antibody (Serotec, UK) at 1/500 in PBS-Tween 20 0.1%, and the antibody-antigen complexes were visualized using alkaline phosphatase conjugated goat anti-rabbit antibodies (1/5000). […]

BACE455 = molecular target: T1, BACE455 (Homo sapiens, UniProt P56817, DEL190-235); test: beta-secretase fluorogenic assay (Substrate V) with membrane extracts of HEK293-BACE455 cells plus protease inhibitors; type: biochemical; details: for inhibition at 100 µM / Percentage of BACE455 inhibition by various inhibitors (mean percentage of cleavage inhibition): BACE455 cell extract; for inhibition at 100 µM / Percentage of BACE455 inhibition by various inhibitors (mean percentage of cleavage inhibition) / effect on substrate cleavage activity of BACE455 extracts (in words): inhibitor 100 μM; for inhibition at 100 µM: read-out: Percentage of BACE455 inhibition by various inhibitors (mean percentage of cleavage inhibition); for BACE455 activity (percentage of activity +−SEM): compared to mock transfected control; for % Inhibition of BACE activity by Inhibitor III: BACE455, 100 μM
T1 construct: full length cDNA of BACE501 and BACE455 in TOPO TA vector were subcloned into pcDNA3; expressed in transfected cells; Triton X100 membrane extract
Experimental: (§1) Cells were harvested and centrifuged at 1,500 rpm for 5 minutes to remove the medium. The cell pellets were washed once with PBS. To further compare BACE455 activity with that of BACE501, an in vitro assay was developed based on quenched fluorogenic substrate (Substrate V, Calbiochem) containing the Swedish mutation KM->NL in APP. Sequence of the peptide was: MCA-[…](DNP)-CONH2 (SEQ ID NO: 32), containing the Swedish APP mutation (in boldface), γ-amino-4-methyl coumarin (MCA) as the fluorophore and dinotrophenol (DNP) as the quencher. When cell lysates of BACE455 and BACE501 expressing cells are incubated with the fluorogenic Substrate V, upon cleavage by the protease, the fluorophore is separated from the quenching group, restoring the full fluorescence yield of the donor. (Ermolief et al., Biochemistry 39: 12450-12456 (2000); Ellerby et al. J. Neurosci. 17: 6165-6178 (1997); Capel et al., J Biol. Chem. 277: 5637-43 (2002)).
(§2) Mock transfected HEK293 and HEK293-BACE455 and -BACE501cells were harvested by scraping in ice-cold 20 mM Tris/150 mM NaCl, pH 7.5 plus Complete Protease Inhibitor Cocktail (Roche Diagnostics). Cell were lysed by repeated freeze-thawing and a postnuclear fraction was generated after centrifugation at 500 g for 10 min, Pellets were resuspended in membrane extraction buffer (20 mM MES/1% Triton X100) containing protease inhibitor cocktail and incubated on ice for 30 minutes. The assay was carried out in black 96 well plates (ATGC) in a volume of 200 μl of the membrane preparation diluted in reaction buffer (25 mM MES/25 mM Sodium Acetate/25 mM Tris, pH 4.4) containing 15 μM peptide Substrate V. These components were equilibrated to 37[deg.] C. for various times and the reaction initiated by addition of substrate. Excitation was performed at 320 nm and the reaction kinetics were monitored by measuring the fluorescence emission at 420 nm. To test the effect of pH, lysed cells were resuspended in 25 mM MES/25 mM Sodium Acetate/25 mM Tris adjusted at pH values ranging from 4.4 to 8 and then incubations were performed as above. Controls included purified recombinant human BACE501 protein (R&D Systems), or substrate alone and background fluorescence is subtracted to recorded BACE isoforms activities.
(§3) Protease inhibitors were added to 100 μl reaction buffer (25 mM MES/25 mM Sodium Acetate/25 mM Tris, pH 4.4) at a final concentration of 100 μM. […] Membrane preparations were obtained as in Example 4 and incubated with the inhibitors for 10 min at room temperature. Reaction was then started by adding 100 μl of reaction buffer containing the substrate (15 μM final concentration) and monitored as described in Example 4. For the dose-response experiment of FIG. 3, Inhibitor III was assayed at various concentrations ranging from 100 μM to 100 nM
(§4) Membrane preparations were obtained as in Example 4 and incubated in assay buffer (25 mM MES/25 mM Sodium Acetate/25 mM Tris) adjusted to final pH ranging from 4.4 to 8, in the presence or absence of BACE inhibitor III (100 μM final concentration). Reaction was started by adding 100 μl of reaction buffer (pH ranging from 4.4 to 8) containing the substrate (15 μM final concentration) and monitored as described in Example 4. We determined in these conditions the percentage of inhibition of BACE by Inhibitor III.

BACE501 = molecular target: T2, BACE501 (Homo sapiens, UniProt P56817); test: beta-secretase fluorogenic assay (Substrate V) with membrane extracts of HEK293-BACE501 cells plus protease inhibitors; type: biochemical; details: for inhibition at 100 µM / Percentage of inhibition by various inhibitors (mean percentage of cleavage inhibition), BACE501: BACE501 cell extract; for inhibition at 100 µM / Percentage of inhibition by various inhibitors (mean percentage of cleavage inhibition), BACE501 / effect on substrate cleavage activity of BACE501 extracts (in words): inhibitor 100 μM; for inhibition at 100 µM: read-out: Percentage of inhibition by various inhibitors (mean percentage of cleavage inhibition), BACE501; for BACE501 activity (percentage of activity +−SEM): compared to mock transfected control; for % Inhibition of BACE activity by Inhibitor III: BACE501, 100 μM
T2 construct: full length cDNA of BACE501 and BACE455 in TOPO TA vector were subcloned into pcDNA3; expressed in transfected cells; Triton X100 membrane extract
Experimental: as §1, §2, §3, §4

[2] = system: endogenously expressed APP in SH-SY5Y cells; test: Aβ1-40 double antibody sandwich ELISA on conditioned medium of transfected SH-SY5Y cells; type: cell-based, human; details: Gleevec treatment of BACE455 cells
Experimental: Cells were harvested 3 days after plating and processed for Western Blotting experiments as described above.
Cell culture supernatants harvested 72 hours after plating were analyzed in a standard double antibody isoform-specific Aβ1-40 ELISA (BioSource International) as follows. […] The detecting antibody is specific for Abeta 1-40 and the conjugated secondary antibody is an anti-rabbit IgG conjugated to horseradish peroxydase. Synthetic human Aβ1-40 standard peptides are serially diluted in the supplied sample diluent for the generation of standard curves.
Human Abeta 1-40 standards were added after washing the plate, as well as 100 μl/well of sample, e.g., conditioned medium of transfected cells. The plate was incubated at 4[deg.] C. overnight. The next day, after washing the plate four times, 100 μl/well rabbit detection antibody was added and incubated for 2 hours on an orbital plate shaker at 20 degree C. […] 100 μl/well stop solution was added and absorbance of each well was read at 450 nm within two hours, with a solution of 100 μl each of chromogen and stop solution as the blank. […] The samples with absorbance values falling within the standard curve were extrapolated (by comparison to the values obtained for the A-β40 and A-β42 standard peptides analyzed on the same plate) from the standard curves and expressed in pg/ml culture medium.

T1 sequence (P56817 with tags, fused parts or gaps DEL190-235): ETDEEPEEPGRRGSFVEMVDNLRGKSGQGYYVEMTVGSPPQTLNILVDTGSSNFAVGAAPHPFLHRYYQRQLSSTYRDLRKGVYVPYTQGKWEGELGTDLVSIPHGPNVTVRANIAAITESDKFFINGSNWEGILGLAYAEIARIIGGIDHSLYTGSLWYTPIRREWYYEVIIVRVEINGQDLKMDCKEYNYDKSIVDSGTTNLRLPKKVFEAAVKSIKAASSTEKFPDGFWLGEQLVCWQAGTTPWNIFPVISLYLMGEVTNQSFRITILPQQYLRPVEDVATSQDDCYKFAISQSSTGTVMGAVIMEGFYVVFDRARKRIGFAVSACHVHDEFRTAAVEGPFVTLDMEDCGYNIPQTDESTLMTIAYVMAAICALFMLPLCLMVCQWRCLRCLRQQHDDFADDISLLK
T2 sequence (P56817 46-501): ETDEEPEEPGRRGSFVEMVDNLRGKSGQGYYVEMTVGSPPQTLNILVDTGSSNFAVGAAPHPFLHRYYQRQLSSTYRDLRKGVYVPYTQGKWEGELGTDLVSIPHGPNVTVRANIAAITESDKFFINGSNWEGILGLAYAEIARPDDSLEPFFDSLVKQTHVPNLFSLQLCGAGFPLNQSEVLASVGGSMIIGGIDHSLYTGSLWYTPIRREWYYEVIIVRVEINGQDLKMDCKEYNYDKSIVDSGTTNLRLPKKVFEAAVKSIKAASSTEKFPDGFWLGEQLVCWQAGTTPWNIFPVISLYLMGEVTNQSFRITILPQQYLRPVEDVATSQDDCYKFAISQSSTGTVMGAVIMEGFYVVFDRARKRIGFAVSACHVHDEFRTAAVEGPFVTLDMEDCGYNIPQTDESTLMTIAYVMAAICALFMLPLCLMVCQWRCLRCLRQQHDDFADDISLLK

C[C@H]1CCC/C=C/[C@@H]2C[C@H](O)C[C@H]2[C@H](O)/C=C/C(=O)O1 [BFA, brefeldin A]
generation of C99 ([1]; 10 μg/ml during the last 8 hours): reduced generation of C99

CC(C)C[C@H](NC(=O)[C@@H](NC(=O)N[C@@H](Cc1ccccc1)C(=O)O)[C@@H]1CCN=C(N)N1)C(=O)N[C@H](C=O)Cc1ccccc1 [Chymostatin]
inhibition at 100 µM (BACE455; pH 4.4): 25.9%
inhibition at 100 µM (BACE501; pH 4.4): 20.4%

CC(C)CCNC(=O)[C@H](CC(C)C)NC(=O)[C@H]1O[C@@H]1C(=O)O [E-64c, E64c]
Percentage of BACE455 inhibition by various inhibitors (mean percentage of cleavage inhibition) (BACE455; pH 4.4): 12.23%
Percentage of inhibition by various inhibitors (mean percentage of cleavage inhibition), BACE501 (BACE501; pH 4.4): 13.14%

Cc1ccc(NC(=O)c2ccc(CN3CCN(C)CC3)cc2)cc1Nc1nccc(-c2cccnc2)n1 [Gleevec, imatinib mesylate]
generation of C99 peptide ([1]; 10 μM for the last 24 hours): strongly reduced
Aβ1-40 release (in words) [2]: strongly reduced

CC(=O)N[C@@H](CC(C)C)C(=O)N[C@@H](CC(C)C)C(=O)N[C@H](C=O)CCCNC(=N)N [Leupeptin]
inhibition at 100 µM (BACE455; pH 4.4): 17.3%
inhibition at 100 µM (BACE501; pH 4.4): 8.03%

CC(C)CC(=O)N[C@H](C(=O)N[C@H](C(=O)N[C@@H](CC(C)C)[C@@H](O)CC(=O)N[C@@H](C)C(=O)N[C@@H](CC(C)C)[C@@H](O)CC(=O)O)C(C)C)C(C)C [Pepstatin A] (Isovaleryl-VV[Sta]A[Sta]-OH)
inhibition at 100 µM (BACE455; pH 4.4): 14.4%
effect on substrate cleavage activity of BACE455 extracts (in words) (BACE455): very weakly sensitive
inhibition at 100 µM (BACE501; pH 4.4): 13.1%
effect on substrate cleavage activity of BACE501 extracts (in words) (BACE501): very weakly sensitive

H-Glu-Val-Asn-Statine-Val-Ala-Glu-Phe-NH2 [Inhibitor III]
BACE455 activity (percentage of activity +−SEM) (BACE455; 1 μM inhibitor): 57.52+−9.08%
BACE455 activity (percentage of activity +−SEM) (BACE455; 10 μM inhibitor): 36.04+−4.13%
% Inhibition of BACE activity by Inhibitor III (BACE455; pH 4.4): 104.16%
% Inhibition of BACE activity by Inhibitor III (BACE455; pH 6.0): 15.97%
% Inhibition of BACE activity by Inhibitor III (BACE455; pH 8.0): 22.10%
Percentage of BACE455 inhibition by various inhibitors (mean percentage of cleavage inhibition) (BACE455; pH 4.4): 104.16%
effect on substrate cleavage activity of BACE455 extracts (in words) (BACE455): completely abolished
BACE501 activity (percentage of activity +−SEM) (BACE501; 1 μM inhibitor): 85.15+−2.93%
BACE501 activity (percentage of activity +−SEM) (BACE501; 10 μM inhibitor): 57.6+−3.12%
% Inhibition of BACE activity by Inhibitor III (BACE501; pH 4.4): 117.54%
% Inhibition of BACE activity by Inhibitor III (BACE501; pH 6.0): 13.23%
% Inhibition of BACE activity by Inhibitor III (BACE501; pH 8.0): 17.63%
Percentage of inhibition by various inhibitors (mean percentage of cleavage inhibition), BACE501 (BACE501; pH 4.4): 117.54%
effect on substrate cleavage activity of BACE501 extracts (in words) (BACE501): completely abolished
